From PMC9344812, “Induction of beige‐like adipocyte markers and functions in 3T3‐L1 cells by Clk1 and PKCβII inhibitory molecules” (Journal of Cellular and Molecular Medicine, 2022)
One block for each binder: values may come before it.

Assays:
Conditions in all cases: both partners purified
[1] = target: T1, PGC1α 6X his-tagged construct (UniProt Q9UBK2 1-798); assay: SPR; Biacore T200; ~1000 RU PGC1α 6X his held non-covalently on a Ni-NTA chip; Clk1 flowed, 30 µl/min; one-site specific binding model with Hill slope
T1 construct: PGC1α, 6X his-tagged construct held on a Ni-NTA chip
T1 sequence (looked up): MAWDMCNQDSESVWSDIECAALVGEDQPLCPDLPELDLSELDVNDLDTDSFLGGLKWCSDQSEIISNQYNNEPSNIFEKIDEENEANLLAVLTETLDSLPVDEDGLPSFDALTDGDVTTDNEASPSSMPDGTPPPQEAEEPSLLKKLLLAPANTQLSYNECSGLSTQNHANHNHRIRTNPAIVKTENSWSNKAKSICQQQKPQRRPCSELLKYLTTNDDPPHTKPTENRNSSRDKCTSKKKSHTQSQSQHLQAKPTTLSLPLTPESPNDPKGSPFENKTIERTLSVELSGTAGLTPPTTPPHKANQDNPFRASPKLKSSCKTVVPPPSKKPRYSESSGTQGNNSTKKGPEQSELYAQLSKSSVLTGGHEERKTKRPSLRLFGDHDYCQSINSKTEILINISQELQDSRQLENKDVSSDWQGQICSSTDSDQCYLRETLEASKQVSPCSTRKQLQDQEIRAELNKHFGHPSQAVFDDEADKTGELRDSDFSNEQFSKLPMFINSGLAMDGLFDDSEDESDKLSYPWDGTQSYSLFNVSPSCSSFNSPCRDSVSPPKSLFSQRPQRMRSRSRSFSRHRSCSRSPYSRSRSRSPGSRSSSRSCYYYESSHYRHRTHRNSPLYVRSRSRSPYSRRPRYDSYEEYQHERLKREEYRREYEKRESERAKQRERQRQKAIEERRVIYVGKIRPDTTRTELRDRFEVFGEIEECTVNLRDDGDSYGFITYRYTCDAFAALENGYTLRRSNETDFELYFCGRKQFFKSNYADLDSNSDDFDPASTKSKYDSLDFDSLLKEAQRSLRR

[2] = target: T2, Clk1 (recombinant, covalently immobilised on the CM5 chip) (UniProt P49759 1-484); assay: SPR; Biacore T200; Clk1, Clk2 (1000 RU) and Clk4 (1000 RU) covalently immobilised on a CM5 chip by NHS/EDC; PGC1α titrated in HBS-N without DMSO, 30 µl/min, 60 s association, 120 s dissociation; steady state, one-site specific binding model
T2 construct: Clk1 kinase, recombinant; The methods print the catalogue number beside PDB 1Z57, which was used for modelling; also called Clk1 GST; source: bought: AbCam #114 706 (recombinant)
T2 sequence (P49759 whole entry): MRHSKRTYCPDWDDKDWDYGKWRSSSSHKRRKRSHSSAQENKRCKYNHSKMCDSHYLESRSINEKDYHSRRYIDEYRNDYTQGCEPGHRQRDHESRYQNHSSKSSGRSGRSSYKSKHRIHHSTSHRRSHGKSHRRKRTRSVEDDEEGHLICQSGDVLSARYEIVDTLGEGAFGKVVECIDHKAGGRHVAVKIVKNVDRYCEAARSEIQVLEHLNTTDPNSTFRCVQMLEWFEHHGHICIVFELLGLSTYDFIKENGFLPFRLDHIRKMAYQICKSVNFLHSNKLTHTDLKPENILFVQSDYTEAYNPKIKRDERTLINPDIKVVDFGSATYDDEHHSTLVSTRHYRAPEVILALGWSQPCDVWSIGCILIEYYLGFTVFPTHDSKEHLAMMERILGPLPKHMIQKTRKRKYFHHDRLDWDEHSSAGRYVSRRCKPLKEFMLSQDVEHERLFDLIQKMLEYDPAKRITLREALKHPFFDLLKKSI

[3] = target: T3, Clk4 (recombinant, covalently immobilised on the CM5 chip) (UniProt Q9HAZ1 1-481); assay: as above
T3 construct: Clk4 kinase, recombinant; source: bought: Abcam#AB204144 (recombinant)
T3 sequence (Q9HAZ1 whole entry): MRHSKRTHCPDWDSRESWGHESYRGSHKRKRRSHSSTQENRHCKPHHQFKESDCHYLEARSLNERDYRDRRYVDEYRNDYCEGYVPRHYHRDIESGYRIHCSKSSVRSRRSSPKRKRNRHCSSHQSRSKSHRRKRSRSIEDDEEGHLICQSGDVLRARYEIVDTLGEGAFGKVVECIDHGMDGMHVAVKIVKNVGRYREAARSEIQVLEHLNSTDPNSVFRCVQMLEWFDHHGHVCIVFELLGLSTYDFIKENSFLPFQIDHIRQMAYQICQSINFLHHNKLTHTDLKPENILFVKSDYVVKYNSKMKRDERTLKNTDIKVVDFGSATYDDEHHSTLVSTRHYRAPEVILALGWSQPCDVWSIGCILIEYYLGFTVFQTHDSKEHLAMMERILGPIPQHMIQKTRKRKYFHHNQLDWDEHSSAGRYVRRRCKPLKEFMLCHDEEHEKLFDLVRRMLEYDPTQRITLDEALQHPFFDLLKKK

[4] = target: T4, Clk2 (recombinant, covalently immobilised on the CM5 chip) (UniProt P49760 1-499); assay: as above
T4 construct: Clk2 kinase, recombinant; source: bought: Abcam #AB63190 (recombinant)
T4 sequence (P49760 whole entry): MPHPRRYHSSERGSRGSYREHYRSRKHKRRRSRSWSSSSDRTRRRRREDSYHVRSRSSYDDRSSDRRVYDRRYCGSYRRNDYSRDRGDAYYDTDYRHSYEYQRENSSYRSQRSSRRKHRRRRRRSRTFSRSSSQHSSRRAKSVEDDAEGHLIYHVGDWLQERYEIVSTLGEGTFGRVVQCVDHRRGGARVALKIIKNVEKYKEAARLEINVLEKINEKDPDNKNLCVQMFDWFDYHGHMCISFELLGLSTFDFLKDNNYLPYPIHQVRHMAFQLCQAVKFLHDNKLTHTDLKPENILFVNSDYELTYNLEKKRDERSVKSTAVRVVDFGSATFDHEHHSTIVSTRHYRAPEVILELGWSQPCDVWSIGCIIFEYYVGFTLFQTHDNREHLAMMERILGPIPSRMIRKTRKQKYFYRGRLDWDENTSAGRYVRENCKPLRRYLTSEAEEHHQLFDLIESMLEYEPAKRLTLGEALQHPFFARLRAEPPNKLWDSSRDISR

Kd [1]: ~38 nM
B1: Clk1 (flowed over immobilised PGC1α 6X his) (enzyme)
chain: not shown
notes: Clk1 kinase, recombinant; May be the same bought protein as m1 (AbCam #114 706)

Kd [2]: 240 nM
Kd [3]: 509 nM
Kd [4]: 980 nM
B2: PGC1α (titrated and flowed over the Clk chips) (natural protein)
chain: TRTELRDRFEVFGEIEECTVNLRDDGDSYGFITYRYTCDAFAALENGYTLRRSNETDFELYFCGRKQFFKSNYADLDSNSDDFDPASTKSKYDSLDFDSLLKEAQRSLRR
modifications: Limits are not printed. They are recalled from the supplier's listing for catalogue H00010891-Q01 (partial human PPARGC1A, NP_037393 aa 689-798, N-terminal GST) and should be verified. GST is left …
